The term Kd denotes the constant that tells how readily two partners part at equilibrium. As a reminder, the IC50 is the concentration that inhibits the measured activity by half.

Series [1] deals with IL-6 (mature human interleukin-6) (Homo sapiens) (UniProt P05231). As to the kind of experiment: filter.
For series [2] the target is unchanged. As to the kind of experiment: cell_activity. To be noted: 2'-OMe at C3,G6,A16,A19,C20,C28, STAT3 gene reporter assay.
For series [3], the target named is T1, IL-6 (Macaca fascicularis) (UniProt P79341).
T1 sequence: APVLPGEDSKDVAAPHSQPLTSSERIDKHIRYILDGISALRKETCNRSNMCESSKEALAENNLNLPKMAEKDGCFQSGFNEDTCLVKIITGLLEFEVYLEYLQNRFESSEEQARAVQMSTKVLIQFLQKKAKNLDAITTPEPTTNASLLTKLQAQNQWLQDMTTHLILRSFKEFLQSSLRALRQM
The series is described as follows: filter. To be noted: Bn-dU at 7,8,14,15,22,23,27,30; PE-dU at 9; Nap-dU at 12; 2'-OMe at C3,G6,A16,A19,C20,C28.

In series [4] the target is T1, IL-6 (Macaca fascicularis). As to the kind of experiment: cell_activity. To be noted: Bn-dU at 7,8,14,15,22,23,27,30; PE-dU at 9; Nap-dU at 12; 2'-OMe at C3,G6,A16,A19,C20,C28; gene reporter assay. (In general: A reporter such as luciferase makes a cellular process visible.)

Consider “GATGTGAGTGTGTGACGAGGGGGUUAUGUAGCGAGUGCGUAAGGCGGUGGGCGAGGGAUCACAGAGAAGAAACAAGACC [2574-49]”, for which the Kd in series [1] (all U are Nap-dU (5-naphthylmethylcarboxamide-dU), SB17T-0.002 (125 mM NaCl, 5 mM KCl, 5 mM MgCl2), 37 C, ZORBAX capture) amounted to 2 nM. Consider “GATGTGAGTGTGTGACGAGUGGGCAGGUUUGGUAUUAACACGUUAAGUCGUGGGGUCGCACAGAGAAGAAACAAGACC [2573-20]”, for which the equilibrium dissociation constant (Kd) in series [1] (all U are Bn-dU (5-benzylcarboxamide-dU), SB17T-0.002 (125 mM NaCl, 5 mM KCl, 5 mM MgCl2), 37 C, ZORBAX capture) was 3 nM. With “GGCAGGUUUGGUAUUAACACGUUAAGUCGUGG [2573-20_15]”, in series [1] (all U are Bn-dU), the dissociation constant Kd came out at 1 nM.

“GGCAGGUUUGGUAUUAACACGUUAAGUCGUGG [2573-20_135]”: in series [2] (all U are Bn-dU), the IC50 was found to be 0.24 nM.

In series [3], “GGCAGGUUUGGUAUUAACACGUUAAGUCGUGG [2573-20_136]” showed a Kd of 2 nM. Moreover, the IC50 in series [4] worked out at 9.7 nM; in series [2] (Bn-dU at 7,8,14,15,22,23,27,30, PE-dU at 9, Nap-dU at 12), 0.5 nM. On to “GGCAGGUUUGGUAUUAACACGUUAAGUCGUGGG [2573-20_14]”, for which, in series [1] (all U are Bn-dU), the Kd was found to be 2.8 nM.

In series [1] (all U are Bn-dU), “GGCAGGUUUGGUAUUAACACGUUAAGUCGUGGGG [2573-20_13]” had a Kd of 1.9 nM. On the same count and under the same terms, in the case of “GGCAGGUUUGGUAUUAACACGUUAAGUCGUGGGGU [2573-20_12]” it was 1.4 nM; in that of “GGCAGGUUUGGUAUUAACACGUUAAGUCGUGGGGUC [2573-20_3]”, 1.5 nM. For the sequence “GGCAGGUUUGGUGUGG [2573-20_324 Bn7 to MBn variant]”, the Kd in series [1] (G-G-C1-A-G-G1-MBn-Bn-Pe-G-G-Nap-C3-G-Bn-G-G (1=2'-OMe, C3=spacer), 100-fold improvement over parent stated) was 1 nM.

With “GGCAGGUUUGGUGUGG [2573-20_324 G-quartet fragment]”, the Kd in series [1] (G-G-C1-A-G-G1-Bn-Bn-Pe-G-G-Nap-C3-G-Bn-G-G (1=2'-OMe, C3=spacer), p263 states approximately 200 nM) was found to be 270 nM.

“GGGGUUAUGUAGCGAGUGCGUAAGGCGGUG [2574-49_14]”: the Kd in series [1] (all U are Nap-dU) came to 0.7 nM. Still for that read-out and setting: in the case of “GGGGUUAUGUAGCGAGUGCGUAAGGCGGUGG [2574-49_13]” it was 1.1 nM; in that of “GGGGUUAUGUAGCGAGUGCGUAAGGCGGUGGG [2574-49_12]”, 1.1 nM. The sequence “GGGGUUAUGUAGCGAGUGCGUAAGGCGGUGGGC [2574-49_11]” gave an equilibrium dissociation constant (Kd) in series [1] (all U are Nap-dU) of 1.5 nM.

With “GGGGUUAUGUAGCGAGUGCGUAAGGCGGUGGGCG [2574-49_10]”, the dissociation constant Kd in series [1] (all U are Nap-dU) amounted to 1.9 nM. In series [1] (all U are Nap-dU), “GGGGUUAUGUAGCGAGUGCGUAAGGCGGUGGGCGA [2574-49_9]” had a dissociation constant Kd of 1.8 nM. On the same count and under the same terms, next, “GGGGUUAUGUAGCGAGUGCGUAAGGCGGUGGGCGAG [2574-49_8]”: 1.2 nM; “GGGGUUAUGUAGCGAGUGCGUAAGGCGGUGGGCGAGG [2574-49_7]”: 2.6 nM; “GGGGUUAUGUAGCGAGUGCGUAAGGCGGUGGGCGAGGG [2574-49_6]”: 3.5 nM. “GGGGUUAUGUAGCGAGUGCGUAAGGCGGUGGGCGAGGGA [2574-49_3]” displayed a dissociation constant Kd in series [1] (all U are Nap-dU) of 4.1 nM.

Turning to “GGGUUAUGUAGCGAGUGCGUAAGGCGGUGGGCGAGGGA [2574-49_15]”, the Kd in series [1] (all U are Nap-dU) turned out to be 2.1 nM. For “GGUUAUGUAGCGAGUGCGUAAGGCGGUGGGCGAGGGA [2574-49_16]”, the Kd in series [1] (all U are Nap-dU) worked out at 3.9 nM.

Consider “GUUAUGUAGCGAGUGCGUAAGGCGGUGGGCGAGGGA [2574-49_17]”, for which the equilibrium dissociation constant (Kd) in series [1] (all U are Nap-dU) was determined as 17 nM. “UUAUGUAGCGAGUGCGUAAGGCGGUGGGCGAGGGA [2574-49_18]” displayed a dissociation constant Kd in series [1] (all U are Nap-dU) of 19 nM.

(Values after patent US20140315986.)
